From PMC3656090 (PLoS Pathogens, 2013) come the findings set out here.

The assay concerns the target T1, synthetic peptide comprising the epitope II region (residues 434-446) of HCV E2, strain H77 (Hepatitis C virus, strain H77).
T1 chain: NTGWLAGLFYQHK
Briefly: crystal structure; Fab 10 mg/ml + epitope II peptide (0.9 mg/ml for HC84-1, 1.5 mg/ml for HC84-27), complex formed overnight at 277 K; crystals at 293 K, hanging drop, 10 mM TRIS pH 8.0, 150 mM NaCl. The conditions noted are these: both partners purified.

B1: Fab fragment of human monoclonal antibody HC84-27 (Fab, V domains shown)
VH: QVTLKESGAEVKKPGSSVKVSCEASGGTLSNYVITWVRQAPGQGLEWMGGFIPTFRTAMYAQGFQGRVTITADESTSIAYMELTNLRSEDTAVYYCARGPLSRGYYDYWGQGTLVTVSS
VL: SYVLTQPPSVSVSPGQTARITCSGDKLGDKYASWYQQKPGQSPVLVIYQDNKRPSEIPARFSGSNSGNTATLTISGAQAMDEADYYCQAWDSNTGVFGTGTKLTVL
Consider B1, for which the binding result is “binds”.
